Data reported in patent publication US20240052042A1 (Novartis, published 2024).

T1: human NPR3 (counter target) (human, UniProt P17342 27-481, limits assumed)
T1 construct: Pannings used hNPR3-hFc; also called hNPR3; hNPR3-hFc
T1 sequence (looked up): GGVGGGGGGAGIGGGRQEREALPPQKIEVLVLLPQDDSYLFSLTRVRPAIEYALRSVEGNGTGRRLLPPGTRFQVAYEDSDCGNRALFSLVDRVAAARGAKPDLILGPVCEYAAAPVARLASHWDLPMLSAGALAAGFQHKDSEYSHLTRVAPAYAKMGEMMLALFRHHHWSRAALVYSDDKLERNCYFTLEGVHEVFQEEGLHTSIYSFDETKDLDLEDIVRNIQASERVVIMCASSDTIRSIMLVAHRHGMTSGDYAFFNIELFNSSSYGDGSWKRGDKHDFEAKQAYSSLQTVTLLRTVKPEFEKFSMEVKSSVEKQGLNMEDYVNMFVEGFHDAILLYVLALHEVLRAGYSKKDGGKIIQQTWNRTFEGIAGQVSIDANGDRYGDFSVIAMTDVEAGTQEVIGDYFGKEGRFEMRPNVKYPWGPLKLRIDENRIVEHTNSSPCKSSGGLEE

T2: rat NPR1 (rNPR1) (rat, UniProt P18910 29-469, limits assumed)
T2 construct: Soluble antigen
T2 sequence: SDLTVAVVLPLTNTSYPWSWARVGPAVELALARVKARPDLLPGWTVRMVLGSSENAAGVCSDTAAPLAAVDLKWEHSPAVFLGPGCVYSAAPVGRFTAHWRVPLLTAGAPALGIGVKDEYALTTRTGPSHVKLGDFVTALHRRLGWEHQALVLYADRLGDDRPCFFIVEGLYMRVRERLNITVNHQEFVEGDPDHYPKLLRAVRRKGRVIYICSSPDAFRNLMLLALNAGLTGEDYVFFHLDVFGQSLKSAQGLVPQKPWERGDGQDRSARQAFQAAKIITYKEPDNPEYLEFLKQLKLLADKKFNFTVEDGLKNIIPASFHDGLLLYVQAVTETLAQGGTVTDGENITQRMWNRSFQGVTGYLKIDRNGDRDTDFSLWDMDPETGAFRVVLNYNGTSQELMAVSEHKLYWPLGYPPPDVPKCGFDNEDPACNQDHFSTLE

T3: human NPR3 in the presence of ANP (human, UniProt P17342 27-481; P01160 124-151, limits assumed)
T3 construct: also called hNPR3 + 100 nM ANP
T3 sequence (looked up): T1 sequence (looked up)
T3 sequence (peptide, looked up): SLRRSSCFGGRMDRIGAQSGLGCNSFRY

T4: rNPR1-ANP complex (rat, UniProt P01160 124-151 (human entry), limits assumed)
T4 construct: rNPR1 antigen in the presence of ANP; also called rNPR1 + 100 nM ANP
T4 sequence: T2 sequence
T4 sequence (peptide): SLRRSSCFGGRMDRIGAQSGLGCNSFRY

T5: hNPR1-ANP complex (human, UniProt P01160 124-151, limits assumed)
T5 construct: hNPR1 antigen in the presence of ANP; also called hNPR1 + 100 nM ANP
T5 sequence: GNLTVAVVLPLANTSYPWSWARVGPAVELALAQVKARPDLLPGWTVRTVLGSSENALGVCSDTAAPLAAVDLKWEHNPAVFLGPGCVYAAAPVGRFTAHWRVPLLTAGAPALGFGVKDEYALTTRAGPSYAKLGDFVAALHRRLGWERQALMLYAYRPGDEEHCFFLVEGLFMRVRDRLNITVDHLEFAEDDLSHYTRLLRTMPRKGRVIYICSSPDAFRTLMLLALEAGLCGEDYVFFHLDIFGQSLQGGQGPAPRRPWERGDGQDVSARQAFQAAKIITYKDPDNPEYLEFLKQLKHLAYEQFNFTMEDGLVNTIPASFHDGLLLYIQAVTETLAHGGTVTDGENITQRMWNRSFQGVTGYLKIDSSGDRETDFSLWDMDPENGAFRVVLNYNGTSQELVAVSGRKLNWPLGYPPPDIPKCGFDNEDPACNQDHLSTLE
T5 sequence (peptide): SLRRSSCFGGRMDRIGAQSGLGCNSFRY

T6: human Natriuretic Peptide Receptor 1 (hNPR1) (human, UniProt P16066 33-473, limits assumed)
T6 construct: pannings used NPR1-hFc; also called NPR1-hFc
T6 sequence: T5 sequence

B1: YY07 (IgG format) (antibody, V domains shown)
VH: EVQLVQSGAEVKKPGESLKISCKGSGYSFTSYWISWVRQMPGKGLEWMGIIYPGTSYTRYSPSFQGQVTISADKSISTAYLQWSSLKASDTAMYYCARGSLPGLLGFDHWGQGTLVTVSS
VL: QSVLTQPPSVSGAPGQRVTISCTGSSSNIGAGYDVHWYQQLPGTAPKLLIYGNSNRPNGVPDRFSGSKSGTSASLAITGLQAEDEADYYCQSYDSPTSSSVFGGGTKLTVLG
notes: also called YY07_LALA
B2: YY06 (IgG format) (antibody, V domains shown)
VH: EVQLLESGGGLVQPGGSLRLSCAASGFTFSSYAISWVRQAPGKGLEWVSAISGSGGSTYYAESVKGRFTISRDNSKNTLYLQMNSLRAEDTAVYYCARPYLGDRRSYGFDHWGQGTLVTVSS
VL: QSALTQPASVSGSPGQSITISCTGTSSDVGSYNLVSWYQQHPGKAPKLMIYEGSKRPSGVSNRFSGSKSGNTASLTISGLQAEDEADYYCSSYGFHIVVVVFGGGTKLTVLG
notes: also called YY06_LALA

Columns and labels:
[1] = molecular target: T1, human NPR3 (counter target); assay: ELISA, IgG titrated on coated antigen, fluorescence [Cont.]
[2] = molecular target: T2, rat NPR1 (rNPR1); assay: as above
[3] = molecular target: T1, human NPR3 (counter target); assay: ELISA, 1 µM IgG; set-up: unit not given here
[4] = molecular target: T3, human NPR3 in the presence of ANP; assay: ELISA, 1 µM IgG; set-up: unit not given here
[5] = molecular target: T3, human NPR3 in the presence of ANP; assay: ELISA, IgG titrated on coated antigen with ANP (250 fold molar excess), fluorescence [Cont.]
[6] = molecular target: T4, rNPR1-ANP complex; assay: as above
[7] = molecular target: W74R hNPR1 mutant in the presence of ANP (human) (UniProt P01160); assay: ELISA, 1 µM IgG
[8] = molecular target: constitutively active human NPR1 mutant (W74R) (human) (UniProt P16066); assay: ELISA, 1 µM IgG
[9] = molecular target: T5, hNPR1-ANP complex; assay: ELISA, IgG titrated on coated antigen with ANP (250 fold molar excess), fluorescence [Cont.]
[10] = molecular target: T6, human Natriuretic Peptide Receptor 1 …; assay: ELISA, IgG titrated on coated antigen, fluorescence [Cont.]

| Binder | binding result [1] | binding result [2] | ELISA binding at 1 µM IgG [3] | ELISA binding at 1 µM IgG [4] | binding result [5] | binding result [6] | ELISA binding at 1 µM IgG [7] | ELISA binding at 1 µM IgG [8] | EC50 (read off the curve) [9] | EC50 (read off the curve) [10] |
| --- | --- | --- | --- | --- | --- | --- | --- | --- | --- | --- |
| B1 | no binding (tested: 1000 nM) | no binding (tested: 1000 nM) | 6 | 5 | no binding (tested: 1000 nM) | no binding (tested: 1000 nM) | 20 | 53 | – | – |
| B2 | – | – | 6 | 6 | – | – | 86 | 83 | ~7 nM | ~7 nM |
